# Numbering of substitutions follows the chain as printed. Numbers in names are those of the source.
# T1: CD25 (Homo sapiens (Human), UniProt P01589 22-240)
# T1 construct: also called IL-2R alpha chain
# T1 sequence: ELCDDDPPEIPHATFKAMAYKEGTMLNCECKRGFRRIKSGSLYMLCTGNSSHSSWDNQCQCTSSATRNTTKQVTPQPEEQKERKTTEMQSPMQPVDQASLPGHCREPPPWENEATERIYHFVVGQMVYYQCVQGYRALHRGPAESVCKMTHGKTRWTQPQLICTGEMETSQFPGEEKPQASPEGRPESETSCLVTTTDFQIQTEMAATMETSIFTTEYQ
# T2: recombinant mouse MAdCAM-1 (mouse, UniProt Q61826 22-365, limits assumed)
# T2 construct: also called mMAdCAM-1; mouse MAdCAM-Fc
# T2 sequence (looked up): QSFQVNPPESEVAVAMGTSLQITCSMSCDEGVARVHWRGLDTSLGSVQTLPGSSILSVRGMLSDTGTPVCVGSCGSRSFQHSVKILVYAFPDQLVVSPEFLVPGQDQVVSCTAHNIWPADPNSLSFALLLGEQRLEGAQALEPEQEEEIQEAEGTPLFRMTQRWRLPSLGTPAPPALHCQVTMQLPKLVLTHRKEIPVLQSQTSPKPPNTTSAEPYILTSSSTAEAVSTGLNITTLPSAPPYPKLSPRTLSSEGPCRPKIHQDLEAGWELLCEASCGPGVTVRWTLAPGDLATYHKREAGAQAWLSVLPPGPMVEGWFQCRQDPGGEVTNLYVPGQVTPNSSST
# T3: mouse MAdCAM expressed on cells (mouse, UniProt Q61826 22-405)
# T3 construct: whole, on cells
# T3 sequence (looked up): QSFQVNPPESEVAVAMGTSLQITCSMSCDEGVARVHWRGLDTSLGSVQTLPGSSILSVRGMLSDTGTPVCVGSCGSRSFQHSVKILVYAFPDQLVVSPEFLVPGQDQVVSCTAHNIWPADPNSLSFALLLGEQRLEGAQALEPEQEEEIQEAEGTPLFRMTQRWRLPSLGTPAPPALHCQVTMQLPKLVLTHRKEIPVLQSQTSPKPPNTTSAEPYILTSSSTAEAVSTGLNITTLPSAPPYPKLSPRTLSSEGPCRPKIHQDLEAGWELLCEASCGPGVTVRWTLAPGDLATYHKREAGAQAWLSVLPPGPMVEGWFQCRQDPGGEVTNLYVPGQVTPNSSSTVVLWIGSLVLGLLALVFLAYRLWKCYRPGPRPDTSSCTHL
# T4: human MAdCAM expressed on cells (human, UniProt Q13477 19-382)
# T4 construct: whole, on cells; also called MADCAM1
# T4 sequence (looked up): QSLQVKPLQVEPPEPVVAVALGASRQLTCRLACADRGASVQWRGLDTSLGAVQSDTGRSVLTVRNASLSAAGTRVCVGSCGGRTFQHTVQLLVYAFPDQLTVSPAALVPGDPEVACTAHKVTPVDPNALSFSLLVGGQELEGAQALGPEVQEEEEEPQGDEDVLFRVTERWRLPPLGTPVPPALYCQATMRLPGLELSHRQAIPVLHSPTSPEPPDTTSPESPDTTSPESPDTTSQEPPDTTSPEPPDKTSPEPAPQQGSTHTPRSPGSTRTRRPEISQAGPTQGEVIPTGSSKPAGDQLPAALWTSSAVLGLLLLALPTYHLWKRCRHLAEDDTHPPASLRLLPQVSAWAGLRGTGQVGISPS
# B1: IL-2 mutein SEQ ID NO: 53 (Fc fusion)
# chain: APTSSSTKKTQLQLEHLLLDLQMILNGINNYKNPKLTRMLTFKFYMPKKATEIKHLQCLEEELKPLEEALNLAPSKNFHLRPRDLISDINVIVLELKGSETTFMCEYADETATIVEFLNRWITFSQSIISTLTGGGGSGGGGSGGGGSGGGGSDKTHTCPPCPAPEAAGAPSVFLFPPKPKDTLMISRTPEVTCVVVDVSHEDPEVKFNWYVDGVEVHNAKTKPREEQYNSTYRVVSVLTVLHQDWLNGKEYKCKVSNKALPAPIEKTISKAKGQPREPQVYTLPPSREEMTKNQVSLTCLVKGFYPSDIAVEWESNGQPENNYKTTPPVLDSDGSFFLYSKLTVDKSRWQQGNVFSCSVMHEALHNHYTQKSLSLSPG
# notes: also called IL-2 L53I N88D V69A, Q74P, C125S-G4Sx4-Fc
# B2: IL-2 mutein SEQ ID NO: 54 (Fc fusion)
# chain: B1 chain with I53L, L56I
# notes: also called IL-2 L56I N88D V69A, Q74P, C125S-G4Sx4-Fc
# B3: IL-2 mutein SEQ ID NO: 56 (Fc fusion)
# chain: B1 chain with I53L, L118I
# notes: also called IL-2 L118I N88D V69A, Q74P, C125S-G4Sx4-Fc
# B4: IL-2 mutein SEQ ID NO: 55 (Fc fusion)
# chain: B1 chain with I53L, L80I
# notes: also called IL-2 L80I N88D V69A, C125S Q74P-G4Sx4-Fc
# B5: MAdCAM Antibody Table 1 Clone 23 (scFv)
# scFv: EVQLLESGGGLVQPGGSLRLSCAASGFTFSSYAMHWVRQAPGKGLEWVSGISGSGGSAYYADSVKGRFTISRDNSKNTLYLQMNSLRAEDTAVYYCATSQAPVDYYYYGMDVWGQGTTVTVSSGGGGSGGGGSGGGGSGGGGSDIQMTQSPSSLSASVGDRVTITCRASQSISSWLAWYQQKPGKAPKLLIYAASNLQRGVPSRFSGSGSGTDFTLTISSLQPEDFATYYCQQSYSIPITFGQGTKVEIK
# B6: MAdCAM Antibody Table 1 Clone 6 (scFv)
# scFv: EVQLLESGGGLVQPGGSLRLSCAASGFTFNNYAFHWVRQAPGKGLEWVSRINSYGTSTTYADSVKGRFTISRDNSKNTLYLQMNSLRAEDTAVYYCAREGPVAGYWYFDLWGQGTLVTVSSGGGGSGGGGSGGGGSGGGGSDIQMTQSPSSLSASVGDRVTITCRASQIIGTNLAWYQQKPGKAPKLLIYGASSLQSGVPSRFSGSGSGTDFTLTISSLQPEDFATYYCQQSYRLPFTFGQGTKVEIK
# notes: also called Antibody Clone 6
# B7: MAdCAM Antibody Table 1 Clone 19 (scFv)
# scFv: EVQLLESGGGLVQPGGSLRLSCAASGFTFDDYAMHWVRQAPGKGLEWVSGISWNSGSIGYADSVKGRFTISRDNSKNTLYLQMNSLRAEDTAVYYCAKDIVAAGHYYYGMDVWGQGTTVTVSSGGGGSGGGGSGGGGSGGGGSDIQMTQSPSSLSASVGDRVTITCQASQDISNYLNWYQQKPGKAPKLLIYDASNLETGVPSRFSGSGSGTDFTLTISSLQPEDFATYYCQQSYSTPLTFGGGTKVEIK
# B8: MAdCAM Antibody Table 1 Clone 20 (scFv)
# scFv: EVQLLESGGGLVQPGGSLRLSCAASGFTFDDYAMHWVRQAPGKGLEWVSYIDTSSSHLYYADSVKGRFTISRDNSKNTLYLQMNSLRAEDTAVYYCARDEAAAGYYGMDVWGQGTTVTVSSGGGGSGGGGSGGGGSGGGGSDIQMTQSPSSLSASVGDRVTITCQAGQDISNYLNWYQQKPGKAPKLLIYDASNLETGVPSRFSGSGSGTDFTLTISSLQPEDFATYYCQQTYSTPITFGQGTKLEIK
# Molecular target: T1, CD25
# Experiment: ELISA, CD25 coated plate
row,EC50 [nM],Binder
1,< 1,B1
2,< 1,B2
3,< 1,B3
4,< 1,B4

# Molecular target: T2, recombinant mouse MAdCAM-1
# Experiment: Octet
row,binding result,Binder
1,no binding,B5
2,no binding,B6
3,no binding,B7
4,no binding,B8

# Molecular target: T3, mouse MAdCAM expressed on cells
# Experiment: cell binding
row,binding result,Binder
1,no binding,B5
2,no binding,B6
3,no binding,B7
4,no binding,B8

# Molecular target: T4, human MAdCAM expressed on cells
# Experiment: cell binding
row,binding result,Binder
1,binds,B5
2,binds,B6
3,binds,B7
4,binds,B8

# Reference: patent publication US20210206856A1 (PANDION OPERATIONS, published 2021)
